Test results as given in PMC9998502, “Functional selectivity of EM-2 analogs at the mu-opioid receptor” (Frontiers in Pharmacology, 2023).
pKi: −log10 of the molar value.

How the values were obtained:
[1] = target: human delta opioid receptor (human) (UniProt P41143)
[2] = target: human kappa opioid receptor (human) (UniProt P41145); assay: radioligand binding; displacement of [3H]U-69593 from commercial membranes of CHO cells transfected with the human recombinant kappa opioid receptor; Ki, mean ± SEM, n ≥ 3
[3] = target: human delta opioid receptor (human) (UniProt P41143); assay: radioligand binding; displacement of [3H]deltorphin-2 from commercial membranes of CHO cells transfected with the human recombinant delta opioid receptor; Ki, mean ± SEM, n ≥ 3
[4] = target: human mu opioid receptor (human) (UniProt P35372)
[5] = target: RLuc-tethered human mu receptor fusion protein (human) (UniProt P35372)
[6] = target: human mu opioid receptor (human) (UniProt P35372); assay: radioligand binding; displacement of [3H]DAMGO from commercial membranes of CHO cells transfected with the human recombinant mu opioid receptor; Ki, mean ± SEM, n ≥ 3
[7] = target: human kappa opioid receptor (human) (UniProt P41145)

Substance | calcium mobilization, CHO cells with delta receptor and GαqG66Di5: α (Emax ratio to the standard agonist) [1] | pKi [2] | pKi [3] | calcium mobilization, CHO cells with human mu receptor and Gαqi5: α (Emax ratio to the standard agonist) [4] | BRET of mu-RLuc with Gβ1-RGFP promoted by the peptide, SH-SY5Y membranes: Emax (EM-2 = 1.00) [5] | pKi [6] | BRET of mu-RLuc with β-arrestin 2-RGFP promoted by the peptide, living SH-SY5Y cells: Emax (EM-2 = 1.00) [5] | BRET of mu-RLuc with β-arrestin 2-RGFP promoted by the peptide, living SH-SY5Y cells: Emax (EM-2 = 1.00), forced to 1 [5] | calcium mobilization, CHO cells with human kappa receptor and Gαqi5: α (Emax ratio to the standard agonist) [7]
DPDPE (peptide) | 1 |  |  |  |  |  |  |  | 
EM-2 analog 1 (Dmt-Pro-Phe-Phe-NH2) (peptide) |  | 6.08 | 6.25 |  |  |  |  |  | 
EM-2 analog 2 (Tyr-(R)-Pip-Phe-Phe-NH2) (peptide) |  | < 6.00 | 6.17 | 0.64 | 0.83 | 7.75 |  |  | 
EM-2 analog 3 (Dmt-(R)-Pip-Phe-Phe-NH2) (peptide) | 0.56 | 7.14 | 7.43 | 0.7 | 0.83 | 8.41 |  |  | 
EM-2 analog 4 (Tyr-(R)-Nip-Phe-Phe-NH2) (peptide) |  | < 6.00 | < 6.00 | 0.99 | 1.11 | 9.07 | 1.3 |  | 
EM-2 analog 5 (Dmt-(R)-Nip-Phe-Phe-NH2) (peptide) |  | 6.25 | 6.23 | 1 | 1.11 | 9.85 | 1.26 |  | 
EM-2 analog 6 (Tyr-(R)-β2-Ala-Phe-Phe-NH2) (peptide) |  | < 6.00 | < 6.00 | 0.88 | 0.86 | 7.33 |  | 1 | 
EM-2 analog 7 (Dmt-(R)-β2-Ala-Phe-Phe-NH2) (peptide) |  | 6.09 | 6.24 | 0.95 | 0.98 | 9.51 | 0.61 |  | 
EM-2 analog 8 (Tyr-(R)-β3-Ala-Phe-Phe-NH2) (peptide) |  | < 6.00 | < 6.00 | 0.99 | 0.96 | 9.36 | 1.12 |  | 
EM-2 analog 9 (Dmt-(R)-β3-Ala-Phe-Phe-NH2) (peptide) |  | 6.05 | 6.54 | 1 | 1.05 | 9.85 | 1.16 |  | 
EM-2 analog 10 (Tyr-Pro-(R)-β2-1-Nal-Phe-NH2) (peptide) |  |  |  |  | 0.68 |  |  |  | 
EM-2 analog 11 (Dmt-Pro-(R)-β2-1-Nal-Phe-NH2) (peptide) |  |  |  |  | 0.81 |  |  |  | 
EM-2 analog 12 (Tyr-Pro-(R)-β3-1-Nal-Phe-NH2) (peptide) |  |  |  |  | 0.96 |  | 0.73 |  | 
EM-2 analog 13 (Dmt-Pro-(R)-β3-1-Nal-Phe-NH2) (peptide) |  |  |  |  | 0.84 |  | 0.37 |  | 
dynorphin A (peptide) |  |  |  |  |  |  |  |  | 1
endomorphin-2 (Tyr-Pro-Phe-Phe-NH2) (peptide) |  | < 6.00 | < 6.00 |  |  |  |  |  | 
